From patent publication US20220017612A1 (TILOS THERAPEUTICS, published 2022)

What follows are binders tested against T1, fusion protein of a human IgG1 Fc domain and human LAP-TGFβ1 (human, UniProt P01137 30-390) (assay: BLI (Octet)).
T1 construct: printed both as Fc-huB1 and LAP-TGFβ-Fc; also called Fc-huB1; Fc-human LAP
T1 sequence (P01137 30-390 limits assumed): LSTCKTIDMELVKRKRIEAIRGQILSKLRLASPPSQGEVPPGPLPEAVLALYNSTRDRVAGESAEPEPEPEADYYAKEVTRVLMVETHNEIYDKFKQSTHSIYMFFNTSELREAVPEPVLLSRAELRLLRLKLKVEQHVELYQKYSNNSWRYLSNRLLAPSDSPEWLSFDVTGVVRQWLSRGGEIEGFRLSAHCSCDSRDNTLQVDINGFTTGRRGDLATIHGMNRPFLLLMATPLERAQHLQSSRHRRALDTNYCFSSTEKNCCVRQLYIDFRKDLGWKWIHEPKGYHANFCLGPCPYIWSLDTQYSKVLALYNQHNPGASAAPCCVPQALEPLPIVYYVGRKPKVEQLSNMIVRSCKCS

| Binder | Kd [nM] | koff [s⁻¹] | kon [M⁻¹ s⁻¹] |
| --- | --- | --- | --- |
| 20E6_H2L1 (antibody, human IgG1, kappa, V domains shown) VH: QVQLVQSGAEVKKPGASVKVSCKASGYTFTSYWMHWVRQAPGQGLEWIGRIDPNSGGIKYNEKFKSRVTLTVDKSSSTAYMELSRLRSDDTAVYYCARWDYGGYFDVWGQGTLVTVSS VL: DIQMTQSPSSLSASVGDRVTITCRASQDITNYLNWYQQKPGKAVKLLIYYTSRLHSGVPSRFSGSGSGTDYTLTISSLQPEDFATYFCQQGDTLPWTFGQGTKLEIKR | 0.48 | 0.000747 | 1.57e+06 |

The binders below were run against T2, human LAP-TGFβ1 overexpressed on cells (human, UniProt P01137 30-390) (assay: flow cytometry; black bar HT1080-huB1, grey bar HT1080).
T2 construct: HT1080 or P3U1 cells overexpressing wild-type human LAP-TGFβ1; also called HT1080-huB1; HT1080-hβ1
T2 sequence (P01137 30-390): as the sequence (P01137 30-390 limits assumed) above

| Binder | binding result |
| --- | --- |
| N73D_V44P (antibody, human IgG1, kappa, V domains shown, also called 28G11_H2L3 with HC N73D and LC V44P) VH: EVQLVESGGGLVQPGGSLRLSCAASGFTFTDYYMSWVRQAPGKGLEWLGFIRNKPNGYTTEYSASVKGRFTISRDDSQSSLYLQMNSLKTEDTAVYYCARYTGGGYFDYWGQGTLLTVSS VL: DIQMTQSPSSLSASVGDRLTISCRASQDISNYLNWYQQKPGKTPKLLIYYTSRLHSGVPSRFSGSGSGTDYTLTISSLQPEDVATYFCQQGDTLPWTFGQGTKLEIKR | no binding |
| S76N_T43V (antibody, human IgG1, kappa, V domains shown, also called 28G11_H2L3 with HC S76N and LC T43V) VH: EVQLVESGGGLVQPGGSLRLSCAASGFTFTDYYMSWVRQAPGKGLEWLGFIRNKPNGYTTEYSASVKGRFTISRDNSQNSLYLQMNSLKTEDTAVYYCARYTGGGYFDYWGQGTLLTVSS VL: DIQMTQSPSSLSASVGDRLTISCRASQDISNYLNWYQQKPGKVVKLLIYYTSRLHSGVPSRFSGSGSGTDYTLTISSLQPEDVATYFCQQGDTLPWTFGQGTKLEIKR | binds |
| S76N_F87Y (antibody, human IgG1, kappa, V domains shown, also called 28G11_H2L3 with HC S76N and LC F87Y) VH: EVQLVESGGGLVQPGGSLRLSCAASGFTFTDYYMSWVRQAPGKGLEWLGFIRNKPNGYTTEYSASVKGRFTISRDNSQNSLYLQMNSLKTEDTAVYYCARYTGGGYFDYWGQGTLLTVSS VL: DIQMTQSPSSLSASVGDRLTISCRASQDISNYLNWYQQKPGKTVKLLIYYTSRLHSGVPSRFSGSGSGTDYTLTISSLQPEDVATYYCQQGDTLPWTFGQGTKLEIKR | binds |
| S76N_V44P (antibody, human IgG1, kappa, V domains shown, also called 28G11_H2L3 with HC S76N and LC V44P) VH: EVQLVESGGGLVQPGGSLRLSCAASGFTFTDYYMSWVRQAPGKGLEWLGFIRNKPNGYTTEYSASVKGRFTISRDNSQNSLYLQMNSLKTEDTAVYYCARYTGGGYFDYWGQGTLLTVSS VL: DIQMTQSPSSLSASVGDRLTISCRASQDISNYLNWYQQKPGKTPKLLIYYTSRLHSGVPSRFSGSGSGTDYTLTISSLQPEDVATYFCQQGDTLPWTFGQGTKLEIKR | binds |
| N73D_Y71F (antibody, human IgG1, kappa, V domains shown, also called 28G11_H2L3 with HC N73D and LC Y71F) VH: EVQLVESGGGLVQPGGSLRLSCAASGFTFTDYYMSWVRQAPGKGLEWLGFIRNKPNGYTTEYSASVKGRFTISRDDSQSSLYLQMNSLKTEDTAVYYCARYTGGGYFDYWGQGTLLTVSS VL: DIQMTQSPSSLSASVGDRLTISCRASQDISNYLNWYQQKPGKTVKLLIYYTSRLHSGVPSRFSGSGSGTDFTLTISSLQPEDVATYFCQQGDTLPWTFGQGTKLEIKR | no binding |
| T30S_Y71F (antibody, human IgG1, kappa, V domains shown, also called 28G11_H2L3 with HC T30S and LC Y71F) VH: EVQLVESGGGLVQPGGSLRLSCAASGFTFSDYYMSWVRQAPGKGLEWLGFIRNKPNGYTTEYSASVKGRFTISRDNSQSSLYLQMNSLKTEDTAVYYCARYTGGGYFDYWGQGTLLTVSS VL: DIQMTQSPSSLSASVGDRLTISCRASQDISNYLNWYQQKPGKTVKLLIYYTSRLHSGVPSRFSGSGSGTDFTLTISSLQPEDVATYFCQQGDTLPWTFGQGTKLEIKR | no binding |
| S76N_WT (antibody, human IgG1, kappa, V domains shown, also called 28G11_H2L3 with HC S76N) VH: EVQLVESGGGLVQPGGSLRLSCAASGFTFTDYYMSWVRQAPGKGLEWLGFIRNKPNGYTTEYSASVKGRFTISRDNSQNSLYLQMNSLKTEDTAVYYCARYTGGGYFDYWGQGTLLTVSS VL: DIQMTQSPSSLSASVGDRLTISCRASQDISNYLNWYQQKPGKTVKLLIYYTSRLHSGVPSRFSGSGSGTDYTLTISSLQPEDVATYFCQQGDTLPWTFGQGTKLEIKR | binds |
| Q75K_T43V (antibody, human IgG1, kappa, V domains shown, also called 28G11_H2L3 with HC Q75K and LC T43V) VH: EVQLVESGGGLVQPGGSLRLSCAASGFTFTDYYMSWVRQAPGKGLEWLGFIRNKPNGYTTEYSASVKGRFTISRDNSKSSLYLQMNSLKTEDTAVYYCARYTGGGYFDYWGQGTLLTVSS VL: DIQMTQSPSSLSASVGDRLTISCRASQDISNYLNWYQQKPGKVVKLLIYYTSRLHSGVPSRFSGSGSGTDYTLTISSLQPEDVATYFCQQGDTLPWTFGQGTKLEIKR | binds |
| T30S_F87Y (antibody, human IgG1, kappa, V domains shown, also called 28G11_H2L3 with HC T30S and LC F87Y) VH: EVQLVESGGGLVQPGGSLRLSCAASGFTFSDYYMSWVRQAPGKGLEWLGFIRNKPNGYTTEYSASVKGRFTISRDNSQSSLYLQMNSLKTEDTAVYYCARYTGGGYFDYWGQGTLLTVSS VL: DIQMTQSPSSLSASVGDRLTISCRASQDISNYLNWYQQKPGKTVKLLIYYTSRLHSGVPSRFSGSGSGTDYTLTISSLQPEDVATYYCQQGDTLPWTFGQGTKLEIKR | binds |
| T30S_T43V (antibody, human IgG1, kappa, V domains shown, also called 28G11_H2L3 with HC T30S and LC T43V) VH: EVQLVESGGGLVQPGGSLRLSCAASGFTFSDYYMSWVRQAPGKGLEWLGFIRNKPNGYTTEYSASVKGRFTISRDNSQSSLYLQMNSLKTEDTAVYYCARYTGGGYFDYWGQGTLLTVSS VL: DIQMTQSPSSLSASVGDRLTISCRASQDISNYLNWYQQKPGKVVKLLIYYTSRLHSGVPSRFSGSGSGTDYTLTISSLQPEDVATYFCQQGDTLPWTFGQGTKLEIKR | binds |
| Q75K_L19V (antibody, human IgG1, kappa, also called 28G11_H2L3 with HC Q75K and LC L19V) heavy: not shown light: DIQMTQSPSSLSASVGDRVTISCRASQDISNYLNWYQQKPGKTVKLLIYYTSRLHSGVPSRFSGSGSGTDYTLTISSLQPEDVATYFCQQGDTLPWTFGQGTKLEIKRTVAAPSVFIFPPSDEQLKSGTASVVCLLNNFYPREAKVQWKVDNALQSGNSQESVTEQDSKDSTYSLSSTLTLSKADYEKHKVYACEVTHQGLSSPVTKSFNRGEC | binds |
| Q75K_WT (antibody, human IgG1, kappa, also called 28G11_H2L3 with HC Q75K) heavy: not shown light: DIQMTQSPSSLSASVGDRLTISCRASQDISNYLNWYQQKPGKTVKLLIYYTSRLHSGVPSRFSGSGSGTDYTLTISSLQPEDVATYFCQQGDTLPWTFGQGTKLEIKRTVAAPSVFIFPPSDEQLKSGTASVVCLLNNFYPREAKVQWKVDNALQSGNSQESVTEQDSKDSTYSLSSTLTLSKADYEKHKVYACEVTHQGLSSPVTKSFNRGEC | binds |
| T30S_V44P (antibody, human IgG1, kappa, V domains shown, also called 28G11_H2L3 with HC T30S and LC V44P) VH: EVQLVESGGGLVQPGGSLRLSCAASGFTFSDYYMSWVRQAPGKGLEWLGFIRNKPNGYTTEYSASVKGRFTISRDNSQSSLYLQMNSLKTEDTAVYYCARYTGGGYFDYWGQGTLLTVSS VL: DIQMTQSPSSLSASVGDRLTISCRASQDISNYLNWYQQKPGKTPKLLIYYTSRLHSGVPSRFSGSGSGTDYTLTISSLQPEDVATYFCQQGDTLPWTFGQGTKLEIKR | binds |
| Q75K_V44P (antibody, human IgG1, kappa, V domains shown, also called 28G11_H2L3 with HC Q75K and LC V44P) VH: EVQLVESGGGLVQPGGSLRLSCAASGFTFTDYYMSWVRQAPGKGLEWLGFIRNKPNGYTTEYSASVKGRFTISRDNSKSSLYLQMNSLKTEDTAVYYCARYTGGGYFDYWGQGTLLTVSS VL: DIQMTQSPSSLSASVGDRLTISCRASQDISNYLNWYQQKPGKTPKLLIYYTSRLHSGVPSRFSGSGSGTDYTLTISSLQPEDVATYFCQQGDTLPWTFGQGTKLEIKR | binds |
